The target in this experiment is synthetic peptide representing amino acids 24 through 39 of FXYD5 (Seq ID No. 1), coupled to maleimide activated BSA (Homo sapiens). The experiment in a line: chemiluminescent ELISA, BSA-coupled peptide 24-39 coated, streptavidin-HRP detection; printed as relative binding affinity.

“L15-linker-biotin conjugate (goat polyclonal anti-FXYD5 L15, sc-30603, coupled via SM(PEG)24 to biotin) (antibody)”: the EC50 came out at 38.2 nM. In turn, “N20-linker-biotin conjugate (goat polyclonal anti-FXYD5 N20, sc-30602, coupled via SM(PEG)24 to biotin) (antibody)” registered an EC50 of 3.75 nM.

In general, EC50 refers to the concentration at which the effect is half-maximal. Low readings indicate higher potency in that assay, high ones lower potency in that assay.

The record behind these values is US20190248887A1.
